# Assays:
# [1] = biological target: TAT-Troponin; experiment: BLI; after the dissociation phase the sensors (1000 nM analyte samples) were moved into binding buffer with 10 mM EDTA, nm shift measured for 300 s; 25°C
# [2] = biological target: TAT-Troponin; experiment: BLI
substance,measurement,setting,value
Troponin inhibitory peptide-myoglobin,koff (EDTA),[1],0.018 s⁻¹
same,kon,[2],3700 M⁻¹ s⁻¹

# — article PMC5446193
